Reference: the nanobody polyreactivity screen of Harvey et al. (2022)

assay: yeast display, Sf9 membrane polyspecificity reagent, FACS + sequencing; frameworks hold sequencing errors
Outline: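 Synthetic nanobody libraries on Saccharomyces cerevisiae BJ5465 were galactose-induced for 36–48 hours, stained 1 hour at 4 °C with 10% biotinylated, detergent-solubilized Sf9 membrane reagent and enriched on streptavidin microbeads. FACS then separated cells into low and high (top ~1%) gates by anti-HA (expression) and streptavidin (reagent binding) fluorescence. Genes were colony-PCR amplified, MiSeq 2 × 250 sequenced and CDR-length filtered. A clone's polyreactivity label is that of its gate of origin.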

Sequence	polyreactivity (PSR sort gate)
QVQLVESGGGLVQAGGSLRLSCAASGRIFAHNAMGWYRQPPGKARELVAAITWSGGSTYYADSVKGRFTISRDNAKKTVYLQMNSLNPEDTAVYYCNNDSHGHLYNYWGQGTQVCVSS	low polyreactivity
QVQLVESGGGLVQAGGSLRLSCAASGRIFAINTMGWYRQAPGKERELVAAINNGGSTNYADSVKGRFTISRDNAKNTVYLQMNSLKPEDTAVYYCAAEGLPYVRVFDFVSRYDYWGQGTQVTVSS	low polyreactivity
QVQLVESGGGLVQAGGSLRLSCAASGRIFALNVMGWYRQAPVKERELFAVINRSGNTNYADSVKGRFTSSRDNAKNTVYLQMNSLKPEDTAVYYCAARRVGYGTDRYYGYDSWGQGTQVTVSS	high polyreactivity
QVQLVESGGGLVQAGGSLRLSCAASGRIFANYAMGWYRQAPGKERELVAAIYWSDDDTYYADSVKGRFTISRDNAKNTVYFQMNRLIPEDTAVYYCAADGRYGWYYGVYNGEDYWGQGTQVTVSS	high polyreactivity
QVQLVESGGGLVQAGGSLRLSCAASGRIFAQNAMGWYRQAPGKERELVAAISWGGGGTYYADSVKGRFTISRDNAKNTVYLQMNSLKPEDTAVYYCAADSPGFGAWDRYEYWGQGTQVTVSW	low polyreactivity
QVQLVESGGGLVQAGGSLRLSCAASGRIFARNAMGWYRQAPGKERELVAAISWSGGRTYYADSVKGRFTISRDNAKNTVYLQMNSLKPEDTAVYYCAADHYPWWAWEFDYWGQGTQVTVSS	low polyreactivity
QVQLVESGGGLVQAGGSLRLSCAASGRIFARNAMGWYRQAPGKERELVAAITYSGGSTYYADSVKGRFTISRDNAKNTVYLQMNSLKPEDTAVYYCAAETSNRGRRYYYWGQGTQVTVSS	high polyreactivity
QVQLVESGGGLVQAGGSLRLSCAASGRIFARYAKGWSRQAPGKERELVAAISRGGSTKNADSVKGRFTISRDNAKITVYLQMNSLKPEDTAVYYCATEYYGPVYDLDYDYWGQGTQVTVSS	low polyreactivity
QVQLVESGGGLVQAGGSLRLSCAASGRIFARYAMGWYRQAPGKERELVAAITNVGSTYADSVKGRFTISRDNAKNTVYLQMNSLKPEDTAVYYCAARSKYDQVRATFWLFDYWGQGTQVTVSS	low polyreactivity
QVQLVESGGGLVQAGGSLRLSCAASGRIFARYAMGWYRQAPGKERELVAAITSRGGSTYYADSVKGRFTISRDNAKNTVYLQMNSLKPEDTAVYYCNADYYRRPYYYWGQGTQVTVSS	high polyreactivity
QVQLVESGGGLVQAGGSLRLSCAASGRIFARYAMGWYRQAPGKERELVASINSGGNTYYADSVKGRFTISRDNAKNTVYLQMNSLKPEDTAVYYCAAVVGRRASSRSRFEYDYWGQGTQVTVSS	low polyreactivity
QVQLVESGGGLVQAGGSLRLSCAASGRIFARYVMGWYRQAPGKERELVAAISRRAGNTYYADSVKGRFTISRDNAKNTVYLQMNSLKPEDTAVYYCAVRYSYYALSTSRYGYWGQGTQVTVSS	high polyreactivity
QVQLVESGGGLVQAGGSLRLSCAASGRIFASYAMGWYRQAPGKERELVAAISLSGGSTYYADSVKGRFTISRDNAKNTVYLQMNSLKPEDTAVYYCAAKNYRRYRDYYWGQGTQVTVSS	high polyreactivity
QVQLVESGGGLVQAGGSLRLSCAASGRIFATNAMGLYRPAPGKERELVATITRSAGRTYYADSVKGRFTISRDNAKNTVYLQMNSLKPEDTAVYYCAASYWDTEPGYREYVYWGQGTQVTVSS	low polyreactivity
QVQLVESGGGLVQAGGSLRLSCAASGRIFATNAMGWYRPAPGKERELVATITRSAGRTYYADSVKGRFTISRDNAKNTVYLQMNSLKPEDTAVYYCAASYWDTEPGYREYDYWGQGTQVTVSS	low polyreactivity
QVQLVESGGGLVQAGGSLRLSCAASGRIFAVYAMGWYRQAPGKERELVAAISWSGGRTNYADSVKGRFTISRDNAKKTVYLQMNSLKPEDTAVYYCNARQWRFGFVASGGKYNYWGQGTQVTVSA	high polyreactivity

Sequence	polyreactivity (PSR sort gate)
QVQLVESGGGLVQAGGSLRLSCAASGRIFAWYAMGWYRQAPGKDRELVAAISDSGGSTYYADSVKGRFTISRDNAKNTVYLQMNSLKPEVTAVYYWAADQVVYYAYWSDHYDDWGQGTQVTVSS	low polyreactivity
QVQLVESGGGLVQAGGSLRLSCAASGRIFAWYAMGWYRQAPGKEREFVAAISRGGSTYYADSVKGRFTISRDNAKNTVYLQMNSLKPEDTAVYYCAASSPSSGRFDYWGQGTQVTVSS	high polyreactivity
QVQLVESGGGLVQAGGSLRLSCAASGRIFAYNTMGWYREAPGKERELVAVSTSGGSTNYADSVKGRFTISRDNAKNTVYLQMNSLKPEDSAVYYCAKRPYGRSGGSRYDYWGQGTQVTVSS	high polyreactivity
QVQLVESGGGLVQAGGSLRLSCAASGRIFAYNTMGWYRQAPGKERELVAVITSGGSTNYADSVNGRFTISRDNAKNTVYLQMNSLKPEDTAVYYCAKRPYGRSGGSRYDYWGQGTQVTVSS	high polyreactivity
QVQLVESGGGLVQAGGSLRLSCAASGRIFAYNTMGWYRQAPRKERELVAVITSGGATNYADSVKGRFTISRDNAKNTVYLQMNSLKPEDTAVYYCAKRPYGRSGGSRYDYWGQGTQVTVSS	high polyreactivity
QVQLVESGGGLVQAGGSLRLSCAASGRIFAYYAMGWYRQAPGKERELVAAINRSGVRTYYADSVKGRFTISRDNAKNTVYLQMNSLKPEDTAVYYCAAPGQHSWGQGTQVTVSS	high polyreactivity
QVQLVESGGGLVQAGGSLRLSCAASGRIFAYYAMGWYRQAPGKERELVAAISRSGGSTYYADSVKGRFTISRDNAKNTVYLLMNSLKPEDTAVYYCNVVRVRYYWWEFDYWGQGTQVTVSS	high polyreactivity
QVQLVESGGGLVQAGGSLRLSCAASGRIFAYYAMGWYRQAPGKERELVAAISRSGVSTYYADSVKGRFTISRDNAKNTVYLQMNSLKPEDTAVYYCDARWRSGFTSVDYWGQGTQVTVSS	low polyreactivity
QVQLVESGGGLVQAGGSLRLSCAASGRIFAYYAMGWYRQAPGKERELVATINYSGTSTYYADSVKGRFTISRDNAKNTVYLQMNSLKPEDTAFYYCAADLTSRLLWYHIERFDYWGQGTQVTVSS	high polyreactivity
QVQLVESGGGLVQAGGSLRLSCAASGRIFAYYAMGWYRQAPGKERELVATISTGGGTYYADSVKGRFSISRDNAKNTVYLQMNSLKPEDTAVYYCAAAPYWYYGYYYWGQGTQVTVSS	high polyreactivity
QVQLVESGGGLVQAGGSLRLSCAASGRIFAYYAMGWYRQAPGKERELVAVISKSGGSTNYADSVKGRFTISRDYAKNTVYLQMNSLKPEDTAVYYCAKRAYDPEMYYWGQGTQVTVSS	low polyreactivity
QVQLVESGGGLVQAGGSLRLSCAASGRIFAYYAMGWYRQAPGKEREMVAAISRSGGSTYYADSVKGRFPISRDNAKNTVYLQMNSLKPEDTAVYYCAASLKVPYATMNYWGQGTQVTVSS	high polyreactivity
QVQLVESGGGLVQAGGSLRLSCAASGRIFCGYAMGWYRQAPGKERELVAAITSGGRTYYADSVKGRFTISRDNAKNTVYLQMNSLKPEDTAVYYCAAVYVPYYWLGRSRGLDYWGQGTQVTVSS	high polyreactivity
QVQLVESGGGLVQAGGSLRLSCAASGRIFDDYAMGWNRQAPGKERELVAAISSSVGNTYYADSVKGRFTISRDNAKYTVYLQMNSLKPEDTAVYYCADYSYVRSSYEVEYDYWGQATQVTVSS	low polyreactivity
QVQLVESGGGLVQAGGSLRLSCAASGRIFDFNAMGWYRQAPGKEREFVAAIRTSGGDSTYYADSVKGRFTISRDNAKNTVYLQMNSLKPEDTAVYYCAKTVWWYYRYPFDYWGQGTQVTVSS	low polyreactivity
